Results from patent US20260008866A1 (published 2026).

B1: Human (ligand)
chain: LFTVTVPKELYIIEHGSNVTLECNFDTGSHVNLGAITASLQKVENDTSPHRERATLLEEQLPLGKASFHIPQVQVRDEGQYQCIIIYGVAWDYKYLTLKVKASYRKINTHILKVPETDEVELTCQATGYPLAEVSWPNVSVPANTSHSRTPEGLYQVTSVLRLKPPPGRNFSCVFWNTHVRELTLASIDLQSQMEPRTHPT
B2: Cyno (Fc fusion)
chain: LFTVTVPKELYIIEHGSNATLECNFDTGSHVNLGAITASLQKVENDTSPHRERATLLEEQLSLGKALFHIPQVQVRDEGQYQCIIIYGVAWDYKYLTLKVKASYRKINTHILKVPETDEVELTCQATGYPLAEVSWPNISVPANTSHSRTPEGLYQVTSVLRLKPHPGRNFSCVFWNAQVRELTLASIDLQSQIEPRTHP

Key:
Assay in all cases: ForteBio Octet (BLI)
20809 = molecular target: 20809
20807 = molecular target: 20807
20814 = molecular target: 20814
20817 = molecular target: 20817
20812 = molecular target: 20812

Binder	Kd 20809 [nM]	Kd 20807 [nM]	Kd 20814 [nM]	Kd 20817 [nM]	Kd 20812 [nM]
B1	1.53	0.58	0.325	0.347	–
B2	0.253	0.25	0.31	0.283	0.312
